According to the supplement of paper PMC10567573:
± gives the standard deviation.

Test: protein stability index of a GFP-peptide fusion (GPS, HEK-293T) (PSI 1-6); higher = more stable
Conditions: c terminus: a fixed tail appended
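Also: 24-mer peptide tiles fused after GFP, lentivirally expressed, FACS-sorted into six equal bins by GFP/DsRed ratio, decoded by Illumina sequencing, PSI is the read-weighted mean bin number.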

Sequence	protein stability index (treatment: DMSO)	protein stability index (treatment: MLN4924 1 uM, 8 h)
PPLSGRSTPKLTSRSAAQDLDRMG [PPFIA4]	4.49 ± 0.19	4.62 ± 0.096
ELSNILNLSYKQVKTWFQNQRMKS [NANOGP8]	2.63 ± 0.49	2.38 ± 0.43
AVNLSVSTLPSLREEEEQVRAHAP [KCNG1]	3.83 ± 0.54	4.21 ± 0.44
PLPAGSLPPYPPYFEGAPFPHPLW [PWWP2B]	2.58 ± 0.31	2.64 ± 0.37
EGGEVRFNGKGKKIRKPRTIYCSL [DLX1]	2.92 ± 0.1	3.39 ± 0.26
GDETAHRIDSQFLIGDTLLVAPVL [MYORG]	2.94 ± 0.3	2.85 ± 0.34
YFYPRGGGSGGGAGGAGGGVTEEQ [JUNB]	5.01 ± 0.3	4.89 ± 0.41
ADIISTVEFNHTGELLATGDKGGR [PPP2R2C]	4.52 ± 0.42	4.66 ± 0.44
YLYYDPDYSFLSLGVYSALREIAF [ATE1]	2.92 ± 0.2	2.67 ± 0.24
RGPVVPKHSTFGQSLTQRLHALKL [GNAS]	2.4 ± 0.29	2.36 ± 0.28
YLYTYDSQITDSEHNSSLVSQQTG [ZNF8]	3.73 ± 0.2	3.71 ± 0.11
AERLFENQLVGPESIAHIGDVMFT [APMAP]	2.99 ± 0.38	3.16 ± 0.31
NRMHESMKLFDSICNNKWFTDTSI [GNAI1]	2.38 ± 0.27	2.33 ± 0.45
DEGRLVLEFSLLSYAFGKFPTVVW [SOAT1]	2.33 ± 0.68	3.07 ± 0.14
MEAMAASTSLPDPGDFDRNVPRIC [VDR]	4.53 ± 0.11	4.53 ± 0.19
CLLSSNSRSLLTGGYNLASVSVWD [TLE6]	2.4 ± 0.38	2.18 ± 0.18

Sequence	protein stability index (treatment: DMSO)	protein stability index (treatment: MLN4924 1 uM, 8 h)
KADLEVSNRHGHTCLMISCYKGHK [FEM1C]	3.03 ± 0.36	2.91 ± 0.33
RSGGHAPRVRELLLDALSPEQLVL [ESR2]	2.82 ± 0.14	2.91 ± 0.34
GREVELKPYIAAHFDVLPTEFTLG [PTPRD]	3.01 ± 0.37	3
LGVIQRDLAKTGCVDLTITNLLEG [AUP1]	2.52 ± 0.18	2.61 ± 0.46
APELVERVQSVDFMRTDPVCQKLL [KLHL14]	3.85 ± 0.36	4.12 ± 0.2
ITYESSQVDPGTDLEPGVLMSAQT [EPB41L3]	4.29 ± 0.33	4.7 ± 0.085
DVFERDWYSPYAKTLQPTKQPNCS [PLD5]	3.49 ± 0.54	3.24 ± 0.15
AAVKLADFGLAIEVQGDQQAWFGF [CAMK2B]	2.33 ± 0.75	2.62 ± 0.77
KDVMEKREDSKEAEKSGEATDGAR [CHGA]	5.79 ± 0.11	5.68 ± 0.37
SPHSPDSSQSSLAQEEEEEDQGRT [DDIT3]	5.57 ± 0.21	5.54 ± 0.17
PQELLEWELVVLGKLKWNLAAVTP [CCND2]	2.47 ± 0.77	2.36 ± 0.57
SDGVYAIVATLLILDICEDNVPDP [TMEM175]	2.86 ± 0.39	2.84 ± 0.51
ELLWKLQTGDPTSPIKLSPTSPVY [MTUS2]	2.3 ± 0.32	2.36 ± 0.16
EVHVPPSSAVSGVKEWFGLGGEQA [MIA2]	4.31 ± 0.22	4.29 ± 0.44
GFRGSDDMELHRMSRMQSKEYPVV [TBX5]	3.93 ± 0.31	3.98 ± 0.31
SFQLEISGFLKEMACPYSVLISGD [FAM98B]	2.56 ± 1.3	2.11 ± 0.74
